Measured values reported in patent publication US20080085859A1, “Drug Promoting Ceramide Transport, Base Sequence for Producing the Drug, Method of Measuring Activity of Promoting Ceramide Release and Method of Measuring Activity of Promoting Intermembrane Ceramide Transfer” (JAPAN SCIENCE AND TECHNOLOGY AGENCY, priority 2003, published 2008).

Test system: LY-A2 cell
Test: cell labeling using C5-DMB-Cer and fluorescence microscopy (ER to Golgi apparatus)
Format: cell-based, Chinese hamster
Conditions: C5-DMB-Cer, traced at 33° C. 15 minutes, LY-A2/hCERT, FIG. 6
Experimental: The present inventors have already made it clear that the activity of ATP dependent transport from the endoplasmic reticulum of natural ceramide (hereinafter, also referred to as ER) to Golgi apparatus can be qualitatively evaluated from the analysis of reallocation from ER of C5-DMB-Cer which is a fluorescent ceramide analogue to Golgi apparatus (J. Cell Biol. 144,673-685, 1999). As described in detail, the cell was exposed to C5-DMB-Cer at 4° C. for 30 minutes for the purpose of performing the pulse labeling of a variety of organelle membranes within a cell containing ER, after washing, it was traced at 33° C. for 15 minutes by a fluorescene microscopy observation method. A method of performing cell labeling using C5-DMB-Cer and a method of performing an observation by a fluorescence microscopy were carried out by a method of Yasuda et al (J. Biol. Chem. 276, 43994-44002, 2001) and a method of Fukasawa et al (J. Cell Biol. 144, 673-685, 1999). Specifically, after CHO-K1 cell, LY-A2 cell and LY-A2/hCERT cell grown on a coverslip made of glass were treated at 4° C. for 30 minutes in F12 medium containing 1 micro-M C5-DMB-Cer, it was washed three times in 1 mL of F12 medium. […] The sample was observed under the fluorescence microscopy immediately after it has been fixed and photographed with a digital CCD camera.

B1: hCERT protein: human CERT protein having an amino acid sequence of SEQ ID NO:1 (protein)
chain: MSDNQSWNSSGSEEDPETESGPPVERCGVLSKWTNYIHGWQDRWVVLKNNALSYYKSEDETEYGCRGSICLSKAVITPHDFDECRFDISVNDSVWYLRAQDPDHRQQWIDAIEQHKTESGYGSESSLRRHGSMVSLVSGASGYSATSTSSFKKGHSLREKLAEMETFRDILCRQVDTLQKYFDACADAVSKDELQRDKVVEDDEDDFPTTRSDGDFLHSTNGNKEKLFPHVTPKGINGIDFKGEAITFKATTAGILATLSHCIELMVKREDSWQKRLDKETEKKRRTEEAYKNAMTELKKKSHFGGPDYEEGPNSLINEEEFFDAVEAALDRQDKIEEQSQSEKVRLHWPTSLPSGDAFSSVGTHRFVQKVEEMVQNHMTYSLQDVGGDANWQLVVEEGEMKVYRREVEENGIVLDPLKATHAVKGVTGHEVCNYFWNVDVRNDWETTIENFHVVETLADNAIIIYQTHKRVWPASQRDVLYLSVIRKIPALTENDPETWIVCNFSVDHDSAPLNNRCVRAKINVAMICQTLVSPPEGNQEISRDNILCKITYVANVNPGGWAPASVLRAVAKREYPKFLKRFTSYVQEKTAGKPILF
modifications: HeLa cell
accumulation of DMB fluorescence to Golgi apparatus region: accumulation comparable to CHO-K1 cell
